These results are taken from patent US20050171014A1 (GOVERNMENT OF THE UNITED STATES OF AMERICA REPRESENTED BY …, published 2005).

Non-standard residues stand in square brackets, D forms with d. HTI‑286 = hemiasterlin derivative, cytotoxic agent; Cha = N[C@@H](CC1CCCCC1)C(=O)O; Nle = CCCC[C@H](N)C(=O)O

Experiment [1] concerns the target low-affinity gastrin receptor of nontransfected cells. The experiment can be described thus: cell-based or functional assay.
The next experiment deals with T1, gastrin receptor.
T1 sequence (P32239 whole entry, species assumed, looked up): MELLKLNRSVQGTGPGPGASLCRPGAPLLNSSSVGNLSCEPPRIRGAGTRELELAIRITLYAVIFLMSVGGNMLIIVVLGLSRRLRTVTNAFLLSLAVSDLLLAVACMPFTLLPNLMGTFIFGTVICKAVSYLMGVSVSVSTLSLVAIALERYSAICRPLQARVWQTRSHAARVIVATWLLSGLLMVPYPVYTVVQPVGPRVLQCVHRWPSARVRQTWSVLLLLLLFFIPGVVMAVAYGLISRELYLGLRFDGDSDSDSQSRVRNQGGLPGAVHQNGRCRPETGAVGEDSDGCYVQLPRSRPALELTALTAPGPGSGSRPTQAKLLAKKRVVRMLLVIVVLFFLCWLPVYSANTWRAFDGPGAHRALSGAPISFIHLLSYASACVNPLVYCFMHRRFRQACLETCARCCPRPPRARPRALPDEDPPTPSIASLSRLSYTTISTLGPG
Briefly: cell-based or functional assay.

{HTI‑286}-[Cha]LALAEEEAYGW[Nle]DF-NH2 [HTI-286-Cha-Leu-Ala-Leu-Ala-EEEAYGW-Nle-DF-NH2]: in experiment [1], the “IC50, growth inhibition of nontransfected cells (MTT or sulforhodamine assay)” value is 300 nM. Besides, the “IC50, growth inhibition of gastrin receptor-expressing 3T3 cells (MTT or sulforhodamine assay)” value with gastrin receptor was found to be 10 nM.
